Test results taken from patent US20260001920A1.

Experiments:
Assay in all cases: cell-based or functional assay
[1] = biological target: RpPpsR2 mutant (with Q105S and L137E introduced) (NLSx3-MS2-RpPpsR2 mutant) (bacteriophage MS2; Rhodopseudomonas palustris) (UniProt P03612)
[2] = biological target: RpPpsR2 mutant (with Q105T and L137E introduced) (NLSx3-MS2-RpPpsR2 mutant) (bacteriophage MS2; Rhodopseudomonas palustris) (UniProt P03612)
[3] = biological target: RpPpsR2 domain-modified body D1-D2 (del C 15) (NLSx3-MS2-RpPpsR2 mutant) (bacteriophage MS2; Rhodopseudomonas palustris) (UniProt P03612)
[4] = biological target: RpPpsR2 domain-modified body D4-D1-D2 (NLSx3-MS2-RpPpsR2 mutant) (bacteriophage MS2; Rhodopseudomonas palustris) (UniProt P03612)
[5] = biological target: RpPpsR2 mutant L110A (NLSx3-MS2-RpPpsR2 mutant) (bacteriophage MS2; Rhodopseudomonas palustris) (UniProt P03612)

Row | light-dependent activation (ratio of NIR signal intensity to Dark signal intensity), CPTS luminescence reporter in HEK293T cells [1] | light-dependent activation (ratio of NIR signal intensity to Dark signal intensity), CPTS luminescence reporter in HEK293T cells [2] | light-dependent activation (NIR against Dark), CPTS luminescence reporter in HEK293T cells [3] | light-dependent activation (NIR against Dark), CPTS luminescence reporter in HEK293T cells [4] | gene activation by light irradiation (NIR against Dark), CPTS luminescence reporter in HEK293T cells [5] | Substance
1 | 10 > | > 10 times |  |  |  | RpBphP1 mutant (with Q502A and E513A introduced) (NLSx3-RpBphP1 mutant-p65-HSF1)
2 |  |  | 9.6 times | 7.2 times | 13.4 times | wild-type RpBphP1 (NLSx3-RpBphP1-p65-HSF1)
